According to PMC11577821:

Tests used:
purified protein [1] = substrate: O=C(CCc1ccc(O)cc1)c1c(O)cc(O)cc1O; assay: purified protein; details: UDP-Glc as sugar donor; C-glucosylation
purified protein [2] = substrate: O=C1CC(O)(c2ccc(O)cc2)Oc2cc(O)cc(O)c21; assay: purified protein; details: UDP-Glc as sugar donor; C-glucosylation

B1: UGT708S6 (Dendrobium catenatum) (protein)
chain: MSSGDTNLPRVLLLPSSGMGHLVPFVRLASALSERCISVSLLAVRPTISAAESLLLSSLPSSLLLDFPIKPLDPSLFPPSSDPFFLQMEALRRSADLLPSFISTCSPPVSSLIIDISIASSFLPVAAAAKIPCFVLFTSSASMLALCSVFAFLSTPTAGADVNIAGGVLKIPTSSLPPPLRDPNHLFTTQFVENGRALAQANGILVNTFSALEPEVLVALNSGAVLPGLPPVIAIGPLPPVKKQPSLPSPALRWLDEQQEKSVMYVSFGSRTAMSKEQIRALGAGLENSGCRFFWVVKSAKVDREEVMEIEELLGEEYAKRVEERGLVVKEWVEQEVVLSHRAVAGFMSHCGWNSVTEAAAAGVRILAWPRMGDQRVNAAVVARSGLGIWPEKWAWEAEERVVAAEEIAVKVREMMRDERLAETAAQVQAEATAAVQEGGSLDQSCGYLLKKL
B1 showed a Km (purified protein [1]) of 545.831 µM, a Vmax (purified protein [1]) of 9.48 µM/min and a kcat (purified protein [1]) of 0.563 s⁻¹. For the same protein, the kcat/Km (purified protein [1]) was 1030 M⁻¹ s⁻¹, the Km (purified protein [2]) was 276.900 µM and the Vmax (purified protein [2]) was 7.68 µM/min. For the same protein, the kcat (purified protein [2]) was 0.907 s⁻¹ and the kcat/Km (purified protein [2]) was 3280 M⁻¹ s⁻¹.
